Starred links: 1 amine or outer side, 2 acyl side, 3 side chain; linkers in the order of their positions; H or OH if unused. Non-standard residues stand in square brackets, D forms with d. *: point of attachment. AC4Abu = α-carboxy-4-aminobutyric acid, O=C(C(CCN[*:1])C(=O)[*:3])[*:2]; Oic = O=C(O)[C@@H]1C[C@@H]2CCCC[C@@H]2N1; Phe(4-Cl) = N[C@@H](Cc1ccc(Cl)cc1)C(=O)O; γGlu = O=C(O)[C@H](CCC(=O)[*:2])N[*:1]; 2Nal = N[C@@H](Cc1ccc2ccccc2c1)C(=O)O; NMeR = CN[C@@H](CCCNC(=N)N)C(=O)O; Tridecanoyl = CCCCCCCCCCCCC(=O)*; Cha = N[C@@H](CC1CCCCC1)C(=O)O; αMeL = CC(C)C[C@](C)(N)C(=O)O; Tle = CC(C)(C)[C@H](N)C(=O)O; β3hP = O=C(O)C[C@@H]1CCCN1; β3hS = N[C@@H](CO)CC(=O)O; Nle = CCCC[C@H](N)C(=O)O; AEEA = NCCOCCOCC(=O)O; Aib = CC(C)(N)C(=O)O; BLeu = β-leucine
B1: Apelin polypeptide SEQ ID NO: 605 (peptide)
peptide: XXXQRPRLSHKGXXPF
modifications: {TDA}[AC4Abu][Aeea][Aeea]QRP[NMeArg][aMeLeu]SHKG[Pip][Nle][aMePro][4-Cl-F]{COOH}
B2: Apelin polypeptide SEQ ID NO: 554 (peptide)
peptide: Tridecanoyl-[γGlu][AEEA][AEEA][dQ]RP[NMeR][αMeL]SHKG[Oic][Nle][β3hP][Phe(4-Cl)]-OH
SMILES: CCCCCCCCCCCCC(=O)N[C@@H](CCC(=O)NCCOCCOCC(=O)NCCOCCOCC(=O)N[C@H](CCC(N)=O)C(=O)N[C@@H](CCCNC(=N)N)C(=O)N1CCC[C@H]1C(=O)N(C)[C@@H](CCCNC(=N)N)C(=O)N[C@@](C)(CC(C)C)C(=O)N[C@@H](CO)C(=O)N[C@@H](Cc1c[nH]cn1)C(=O)N[C@@H](CCCCN)C(=O)NCC(=O)N1[C@H](C(=O)N[C@@H](CCCC)C(=O)N2CCC[C@H]2CC(=O)N[C@@H](Cc2ccc(Cl)cc2)C(=O)O)C[C@@H]2CCCC[C@@H]21)C(=O)O
B3: Apelin polypeptide SEQ ID NO: 422 (peptide)
peptide: XXXQRPRLSHKGPXPF
modifications: {TDA}[AC4Abu][Aeea][Aeea]QRP[NMeArg][BhLeu]SHKGP[Nle]P[4-Cl-F]{COOH}
B4: Apelin polypeptide SEQ ID NO: 500 (peptide)
peptide: Tridecanoyl-[γGlu][AEEA][AEEA][dQ]RP[NMeR][Cha][β3hS]HKG[Oic][Nle][Aib][Phe(4-Cl)]-OH
SMILES: CCCCCCCCCCCCC(=O)N[C@@H](CCC(=O)NCCOCCOCC(=O)NCCOCCOCC(=O)N[C@H](CCC(N)=O)C(=O)N[C@@H](CCCNC(=N)N)C(=O)N1CCC[C@H]1C(=O)N(C)[C@@H](CCCNC(=N)N)C(=O)N[C@@H](CC1CCCCC1)C(=O)N[C@@H](CO)CC(=O)N[C@@H](Cc1c[nH]cn1)C(=O)N[C@@H](CCCCN)C(=O)NCC(=O)N1[C@H](C(=O)N[C@@H](CCCC)C(=O)NC(C)(C)C(=O)N[C@@H](Cc2ccc(Cl)cc2)C(=O)O)C[C@@H]2CCCC[C@@H]21)C(=O)O
B5: Apelin polypeptide SEQ ID NO: 444 (peptide)
peptide: Tridecanoyl-[γGlu][AEEA][AEEA]QRP[NMeR][Cha]SH[AMeK]G[Oic][Nle]P[Phe(4-Cl)]-OH
B6: Apelin polypeptide SEQ ID NO: 555 (peptide)
peptide: XXXQRPRLSHKGXXPF
modifications: {TDA}[AC4Abu][Aeea][Aeea]qRP[NMeArg][aMeLeu]SHKG[Pip][Nle][aMePro][4-Cl-F]{COOH}
B7: Apelin polypeptide SEQ ID NO: 472 (peptide)
peptide: Tridecanoyl-[γGlu][AEEA][AEEA]QRP[NMeR][αMeL]SHKGP[Nle]P[2Nal]-OH
SMILES: CCCCCCCCCCCCC(=O)N[C@@H](CCC(=O)NCCOCCOCC(=O)NCCOCCOCC(=O)N[C@@H](CCC(N)=O)C(=O)N[C@@H](CCCNC(=N)N)C(=O)N1CCC[C@H]1C(=O)N(C)[C@@H](CCCNC(=N)N)C(=O)N[C@@](C)(CC(C)C)C(=O)N[C@@H](CO)C(=O)N[C@@H](Cc1c[nH]cn1)C(=O)N[C@@H](CCCCN)C(=O)NCC(=O)N1CCC[C@H]1C(=O)N[C@@H](CCCC)C(=O)N1CCC[C@H]1C(=O)N[C@@H](Cc1ccc2ccccc2c1)C(=O)O)C(=O)O
B8: Apelin polypeptide SEQ ID NO: 391 (peptide)
peptide: Tridecanoyl-[γGlu][AEEA][AEEA]QRP[NMeR][BLeu]SHKG[Oic][Nle]P[Phe(4-Cl)]-OH
B9: Apelin polypeptide SEQ ID NO: 530 (peptide)
peptide: Tridecanoyl-[γGlu][AEEA][AEEA][dQ]RP[NMeR][Cha]SAKG[Oic][Nle][Aib][Phe(4-Cl)]-OH
SMILES: CCCCCCCCCCCCC(=O)N[C@@H](CCC(=O)NCCOCCOCC(=O)NCCOCCOCC(=O)N[C@H](CCC(N)=O)C(=O)N[C@@H](CCCNC(=N)N)C(=O)N1CCC[C@H]1C(=O)N(C)[C@@H](CCCNC(=N)N)C(=O)N[C@@H](CC1CCCCC1)C(=O)N[C@@H](CO)C(=O)N[C@@H](C)C(=O)N[C@@H](CCCCN)C(=O)NCC(=O)N1[C@H](C(=O)N[C@@H](CCCC)C(=O)NC(C)(C)C(=O)N[C@@H](Cc2ccc(Cl)cc2)C(=O)O)C[C@@H]2CCCC[C@@H]21)C(=O)O
B10: Apelin polypeptide SEQ ID NO: 543 (peptide)
peptide: Tridecanoyl-[γGlu][AEEA][AEEA][dQ]RP[NMeR][Cha]SHK[Tle][Oic][Nle][Aib][Phe(4-Cl)]-OH
SMILES: CCCCCCCCCCCCC(=O)N[C@@H](CCC(=O)NCCOCCOCC(=O)NCCOCCOCC(=O)N[C@H](CCC(N)=O)C(=O)N[C@@H](CCCNC(=N)N)C(=O)N1CCC[C@H]1C(=O)N(C)[C@@H](CCCNC(=N)N)C(=O)N[C@@H](CC1CCCCC1)C(=O)N[C@@H](CO)C(=O)N[C@@H](Cc1c[nH]cn1)C(=O)N[C@@H](CCCCN)C(=O)N[C@H](C(=O)N1[C@H](C(=O)N[C@@H](CCCC)C(=O)NC(C)(C)C(=O)N[C@@H](Cc2ccc(Cl)cc2)C(=O)O)C[C@@H]2CCCC[C@@H]21)C(C)(C)C)C(=O)O
B11: Apelin polypeptide SEQ ID NO: 414 (peptide)
peptide: Tridecanoyl-[AC4Abu][AEEA][AEEA]QRP[NMeR][Cha]SHKG[Aib][Nle]P[Phe(4-Cl)]-OH
SMILES: CCCCCCCCCCCCC(=O)NCCC(C(=O)O)C(=O)NCCOCCOCC(=O)NCCOCCOCC(=O)N[C@@H](CCC(N)=O)C(=O)N[C@@H](CCCNC(=N)N)C(=O)N1CCC[C@H]1C(=O)N(C)[C@@H](CCCNC(=N)N)C(=O)N[C@@H](CC1CCCCC1)C(=O)N[C@@H](CO)C(=O)N[C@@H](Cc1c[nH]cn1)C(=O)N[C@@H](CCCCN)C(=O)NCC(=O)NC(C)(C)C(=O)N[C@@H](CCCC)C(=O)N1CCC[C@H]1C(=O)N[C@@H](Cc1ccc(Cl)cc1)C(=O)O
B12: Apelin polypeptide SEQ ID NO: 438 (peptide)
peptide: Tridecanoyl-[γGlu][AEEA][AEEA]QRP[NMeR][Cha]S[Tle]KG[Oic][Nle]P[Phe(4-Cl)]-OH
SMILES: CCCCCCCCCCCCC(=O)N[C@@H](CCC(=O)NCCOCCOCC(=O)NCCOCCOCC(=O)N[C@@H](CCC(N)=O)C(=O)N[C@@H](CCCNC(=N)N)C(=O)N1CCC[C@H]1C(=O)N(C)[C@@H](CCCNC(=N)N)C(=O)N[C@@H](CC1CCCCC1)C(=O)N[C@@H](CO)C(=O)N[C@H](C(=O)N[C@@H](CCCCN)C(=O)NCC(=O)N1[C@H](C(=O)N[C@@H](CCCC)C(=O)N2CCC[C@H]2C(=O)N[C@@H](Cc2ccc(Cl)cc2)C(=O)O)C[C@@H]2CCCC[C@@H]21)C(C)(C)C)C(=O)O

The binders below were run against T1, human APJ receptor (human, UniProt P35414 1-380) (assay: cell-based or functional assay).
T1 sequence (looked up): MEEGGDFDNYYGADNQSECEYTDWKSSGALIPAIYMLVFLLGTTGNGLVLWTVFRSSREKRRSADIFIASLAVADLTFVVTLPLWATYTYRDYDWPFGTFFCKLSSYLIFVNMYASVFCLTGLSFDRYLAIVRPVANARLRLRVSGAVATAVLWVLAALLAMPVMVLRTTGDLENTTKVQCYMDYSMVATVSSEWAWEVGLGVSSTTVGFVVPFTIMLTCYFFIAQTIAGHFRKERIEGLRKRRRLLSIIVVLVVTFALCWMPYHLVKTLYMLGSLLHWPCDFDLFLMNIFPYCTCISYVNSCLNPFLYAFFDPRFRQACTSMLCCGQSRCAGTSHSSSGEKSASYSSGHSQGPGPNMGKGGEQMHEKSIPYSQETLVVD

Row | Binder | EC50 Human APJ Receptor (GTPγS assay) [nM]
1 | B1 | 0.0832
2 | B2 | 0.867
3 | B3 | 0.169
4 | B4 | 0.588
5 | B5 | 5.6
6 | B6 | 0.102
7 | B7 | 0.0204
8 | B8 | 0.565
9 | B9 | 0.38
10 | B10 | 0.583
11 | B11 | 3.39
12 | B12 | 1.49

These binders were tested against T2, rat APJ receptor (rat, UniProt Q9JHG3 1-377) (assay: cell-based or functional assay).
T2 sequence (looked up): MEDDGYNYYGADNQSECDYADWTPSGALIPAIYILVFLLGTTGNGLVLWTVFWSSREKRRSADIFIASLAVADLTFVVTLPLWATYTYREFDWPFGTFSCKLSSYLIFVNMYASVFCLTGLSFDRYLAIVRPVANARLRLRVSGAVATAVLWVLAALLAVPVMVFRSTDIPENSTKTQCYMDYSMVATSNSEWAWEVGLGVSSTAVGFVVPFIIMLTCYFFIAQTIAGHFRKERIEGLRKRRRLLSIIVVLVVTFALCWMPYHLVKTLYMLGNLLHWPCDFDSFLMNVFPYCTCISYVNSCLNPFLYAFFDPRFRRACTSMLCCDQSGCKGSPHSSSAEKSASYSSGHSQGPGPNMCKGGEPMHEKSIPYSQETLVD

Row | Binder | EC50 Rat APJ Receptor (GTPγS assay) [nM]
13 | B1 | 0.298
14 | B2 | 2.83
15 | B3 | 0.197
16 | B4 | 3.14
17 | B5 | 10.1
18 | B6 | 0.421
19 | B7 | 0.092
20 | B8 | 1.5
21 | B9 | 0.975
22 | B10 | 1.4
23 | B11 | 3.79
24 | B12 | 1.28

From patent US10941182 (Amgen, dated 2021)
